Measurements as given in PMC101403.

Tests used:
Test in all cases: purified protein
Details in all cases: Mg2+ ([…] MgCl2)
[1] = substrate: CC(=O)SCCNC(=O)CCNC(=O)[C@H](O)C(C)(C)COP(=O)(O)OP(=O)(O)OC[C@H]1O[C@@H](n2cnc3c(N)ncnc32)[C@H](O)[C@@H]1OP(=O)(O)O
[2] = substrate: CC(C)(COP(=O)(O)OP(=O)(O)OC[C@H]1O[C@@H](n2cnc3c(N)ncnc32)[C@H](O)[C@@H]1OP(=O)(O)O)[C@@H](O)C(=O)NCCC(=O)NCCS
[3] = substrate: CC(C)(COP(=O)(O)OP(=O)(O)OC[C@H]1O[C@@H](n2cnc3c(N)ncnc32)[C@H](O)[C@@H]1OP(=O)(O)O)[C@@H](O)C(=O)NCCC(=O)NCCSC(=O)CCC(=O)O
[4] = substrate: CC(O)(CC(=O)O)CC(=O)SCCNC(=O)CCNC(=O)[C@H](O)C(C)(C)COP(=O)(O)OP(=O)(O)OC[C@H]1O[C@@H](n2cnc3c(N)ncnc32)[C@H](O)[C@@H]1OP(=O)(O)O

B1: Y87G2A.14 Nudix hydrolase (coenzyme A diphosphatase) (Caenorhabditis elegans) (protein)
chain: MKCVVSRADDLKRMLDLSDVPTKSQGEQDAGVLILLHDDGSEKLKVLLCVRSRQLRRHPGEVCFPGGMMDDEDGQNVRRTAIREAYEEVGVNENDDYLVLGNLPAFRARFGVLIHPTVALLRRPPTFVLSIGEVESIFWIPLSQFLEDTHHSTFLIDEFYMVHVFQFDEYPTTYGVTALMCIVVAIGLLGKLPNFNLMGNLTISDMLDKHLDSIEIIRHVYEFASRKFEPKSKI
- Km [1]: 230 µM
- kcat [1]: 11.8 s⁻¹
- kcat/Km [1]: 51000 M⁻¹ s⁻¹
- Km [2]: 220 µM
- kcat [2]: 13.8 s⁻¹
- kcat/Km [2]: 64000 M⁻¹ s⁻¹
- Km [3]: 240 µM
- kcat [3]: 12.7 s⁻¹
- kcat/Km [3]: 53000 M⁻¹ s⁻¹
- Km [4]: 200 µM
- kcat [4]: 10.5 s⁻¹
- kcat/Km [4]: 54000 M⁻¹ s⁻¹
